We go through four molecules from patent US12269859B2, “Synthetic immune receptors and methods of use thereof” (Angeles Therapeutics, Inc., priority 2016, dated 2025).

The test system of the test is target antigen-expressing cell line. Nature of the test: Jurkat NFAT-GFP assay, coculture with target cell lines expressing the respective target antigen (summary Table 10A). It counts as cell-based, human. More on the design: key: The signs +/−, +, 2+ etc. after the name of the cell lines indicate the relative degree of positivity on the Jurkat-NFAT-GFP assay as measured by the % GFP positive cells; +: relative degree of positivity on the Jurkat-NFAT-GFP assay as measured by the % GFP positive cells; 2+: relative degree of positivity on the Jurkat-NFAT-GFP assay as measured by the % GFP positive cells. Particulars: relative % GFP positive cells; for NFAT-GFP ASSAY Positive Cell lines: RAJI: SIR-expressing Jurkat-NFAT-GFP cells cocultured with RAJI. In outline:
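Jurkat cells carrying an NFAT-site IL-2 promoter driving GFP were lentivirally transduced with SIRs, puromycin-selected, then cocultured with antigen-expressing target cells at E:T about 1:2 for about 4–18 hours. GFP induction was read by flow cytometry as % GFP-positive cells versus parental Jurkat-NFAT-GFP.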

B1: 052316-J03 (protein)
chain: MALPVTALLLPLALLLHAARPDEIVLTQSPATLSLSPGERATLSCSASSSVSYMHWYQQKPGQAPRLLIYDTSKLASGIPARFSGSGSGTDFTLTISSLEPEDVAVYYCFQGSVYPFTFGQGTKLEIKRGGGGSGGGGSGGGGSQVQLQESGPGLVKPSQTLSLTCTVSGGSISTSGMGVGWIRQHPGKGLEWIGHIWWDDDKRYNPALKSRVTISVDTSKNQFSLKLSSVTAADTAVYYCARMELWSYYFDYWGQGTLVTVSSTREQKLISEEDGSGIQNPDPAVYQLRDSKSSDKSVCLFTDFDSQTNVSQSKDSDVYITDKTVLDMRSMDFKSNSAVAWSNKSDFACANAFNNSIIPEDTFFPSPESSCDVKLVEKSFETDTNLNFQNLSVIGFRILLLKVAGFNLLMTLRLWSSRAKRSGSGVKQTLNFDLLKLAGDVESNPGPSRGHMTEYKPTVRLATRDDVPRAVRTLAAAFADYPATRHTVDPDRHIERVTELQELFLTRVGLDIGKVWVADDGAAVAVWTTPESVEAGAVFAEIGPRMAELSGSRLAAQQQMEGLLAPHRPKEPAWFLATVGVSPDHQGKGLGSAVVLPGVEAAERAGVPAFLETSAPRNLPFYERLGFTVTADVEVPEGPRTWCMTRKPGA
modifications: Synthetic Immune Receptor (SIR)
With B1, the “NFAT-GFP ASSAY Positive Cell lines: RAJI” value is on record as “RAJI (+)”.

B2: 060816-H05 (protein)
chain: MALPVTALLLPLALLLHAARPDEIVLTQSPATLSLSPGERATLSCSASSSVSYMHWYQQKPGQAPRLLIYDTSKLASGIPARFSGSGSGTDFTLTISSLEPEDVAVYYCFQGSVYPFTFGQGTKLEIKRGGGGSGGGGSGGGGSQVQLQESGPGLVKPSQTLSLTCTVSGGSISTSGMGVGWIRQHPGKGLEWIGHIWWDDDKRYNPALKSRVTISVDTSKNQFSLKLSSVTAADTAVYYCARMELWSYYFDYWGQGTLVTVSSTREQKLISEEDGSGTPFPSLAPPIMLLVDGKQQMVVVCLVLDVAPPGLDSPIWFSAGNGSALDAFTYGPSPATDGTWTNLAHLSLPSEELASWEPLVCHTGPGAEGHSRSTQPMHLSGEASTARTCPQEPLRGTPGGALWLGVLRLLLFKLLLFDLLLTCSCLCDPAGPLPSPATTTRLRALGSHRLHPATETGGREATSSPRPQPRDRRWGDTPPGRKPGSPVRAKRSGSGVKQTLNFDLLKLAGDVESNPGPSRGHMTEYKPTVRLATRDDVPRAVRTLAAAFADYPATRHTVDPDRHIERVTELQELFLTRVGLDIGKVWVADDGAAVAVWTTPESVEAGAVFAEIGPRMAELSGSRLAAQQQMEGLLAPHRPKEPAWFLATVGVSPDHQGKGLGSAVVLPGVEAAERAGVPAFLETSAPRNLPFYERLGFTVTADVEVPEGPRTWCMTRKPGA
modifications: Synthetic Immune Receptor (SIR)
For B2, the “NFAT-GFP ASSAY Positive Cell lines: RAJI” value is recorded as “RAJI (+)”.

B3: 102616-D06 (protein)
chain: MALPVTALLLPLALLLHAARPDVQMIQTPDSLAVSLGQRATISCRASESVDNYGISFMHWYQQKPGQSPKLLIYRASNLESGIPARFSGSGSRTDFTLTINPVETDDVATYYCQQNNKDPPTFGGGTKLEIKLEGKPIPNPLLGLDSTGSGEDLKNVFPPEVAVFEPSKAEIAHTQKATLVCLATGFYPDHVELSWWVNGKEVHSGVCTDPQPLKEQPALNDSRYCLSSRLRVSATFWQNPRNHFRCQVQFYGLSENDEWTQDRAKPVTQIVSAEAWGRADCGITSASYHQGVLSATILYEILLGKATLYAVLVSALVLMAMVKRKDSRGRAKRSGSGATNFSLLKQAGDVEENPGPTSMDWIWRILFLVGAATGAHSFEGGGGSQVQLQQSGAELVKPGASVKISCKASGYAFSSYWMNWVKQRPGKGLEWIGQIYPGDGDTTYNGKFKGKATLTADKSSSTVYMQLNSLTSEDSAVYFCVRYYYGSSGYFDYWGQGTTLTVSSTREQKLISEEDGSGIQNPDPAVYQLRDSKSSDKSVCLFTDFDSQTNVSQSKDSDVYITDKCVLDMRSMDFKSNSAVAWSNKSDFACANAFNNSIIPEDTFFPSSDVPCDVKLVEKSFETDTNLNFQNLSVIGFRILLLKVAGFNLLMTLRLWSSRAKRSGSGVKQTLNFDLLKLAGDVESNPGPSRGHMTEYKPTVRLATRDDVPRAVRTLAAAFADYPATRHTVDPDRHIERVTELQELFLTRVGLDIGKVWVADDGAAVAVWTTPESVEAGAVFAEIGPRMAELSGSRLAAQQQMEGLLAPHRPKEPAWFLATVGVSPDHQGKGLGSAVVLPGVEAAERAGVPAFLETSAPRNLPFYERLGFTVTADVEVPEGPRTWCMTRKPGA
modifications: Synthetic Immune Receptor (SIR)
In the case of B3, the “NFAT-GFP ASSAY Positive Cell lines: LAN5” value (SIR-expressing Jurkat-NFAT-GFP cells cocultured with LAN5) is listed as “LAN5 (+)”.

B4: 092515-Y08 (protein)
chain: MALPVTALLLPLALLLHAARPDEIVLTQSPATLSLSPGERATLSCSASSSVSYMHWYQQKPGQAPRLLIYDTSKLASGIPARFSGSGSGTDFTLTISSLEPEDVAVYYCFQGSVYPFTFGQGTKLEIKRGGGGSGGGGSGGGGSQVQLQESGPGLVKPSQTLSLTCTVSGGSISTSGMGVGWIRQHPGKGLEWIGHIWWDDDKRYNPALKSRVTISVDTSKNQFSLKLSSVTAADTAVYYCARMELWSYYFDYWGQGTLVTVSSLESWKDASGWSCTDPQPLKEQPALNDSRYCLSSRLRVSATFWQNPRNHFRCQVQFYGLSENDEWTQDRAKPVTQIVSAEAWGRADCGFTSESYQQGVLSATILYEILLGKATLYAVLVSALVLMAMVKRKDSRGRAKRSGSGATNFSLLKQAGDVEENPGPTSMALPVTALLLPLALLLHAARPDIQMTQTTSSLSASLGDRVTISCRASQDISKYLNWYQQKPDGTVKLLIYHTSRLHSGVPSRFSGSGSGTDYSLTISNLEQEDIATYFCQQGNTLPYTFGGGTKLEITTREQKLISEEDLSSCDVKLVEKSFETDTNLNFQNLSVIGFRILLLKVAGFNLLMTLRLWSSSSRAKRSGSGVKQTLNFDLLKLAGDVESNPGPSRGHMTEYKPTVRLATRDDVPRAVRTLAAAFADYPATRHTVDPDRHIERVTELQELFLTRVGLDIGKVWVADDGAAVAVWTTPESVEAGAVFAEIGPRMAELSGSRLAAQQQMEGLLAPHRPKEPAWFLATVGVSPDHQGKGLGSAVVLPGVEAAERAGVPAFLETSAPRNLPFYERLGFTVTADVEVPEGPRTWCMTRKPGA
modifications: Synthetic Immune Receptor (SIR)
Take B4: the “NFAT-GFP ASSAY Positive Cell lines: RAJI” value was “RAJI (+), NALM6 (+)”. In addition, the “NFAT-GFP ASSAY Positive Cell lines: NALM6” value (SIR-expressing Jurkat-NFAT-GFP cells cocultured with NALM6) is on record as “RAJI (+), NALM6 (+)”.
